What all share (assay): cell_activity
Data set [1] has as its system MamA E270A E270A (Mycobacterium tuberculosis). The conditions noted are these: SMRT sequencing kinetics; partial stochastic methylation.
Data set [2] has as its system MamA G152S G152S (Mycobacterium tuberculosis). The conditions noted are these: SMRT sequencing kinetics; partial stochastic methylation.
The subject of data set [3] is MamA W136R W136R (Mycobacterium tuberculosis). The conditions noted are these: SMRT sequencing kinetics; methylation knockout, binding itself not measured.
In data set [4] the test system is MamB K1033T K1033T (Mycobacterium tuberculosis). To be noted: SMRT sequencing kinetics; single isolate.

As for “CTGGAG (double strand) [MamA target motif sites]”, the activity (mean SMALR native score) is 0.0558 in data set [1], 0.766 in data set [2] and -0.107 in data set [3].
MamB target motif sites displayed an activity (mean SMALR native score) in data set [4] of 0.299.

The values are drawn from patent US20230076063.
